The values below come from patent publication US20150307617A1 (Genentech, published 2015).

This test has as its target T1, Human OX40 (Sino Biological Inc) (human, UniProt P43489 29-216, limits assumed).
T1 construct: Bought soluble protein used as SPR analyte; also called huOX40
T1 sequence: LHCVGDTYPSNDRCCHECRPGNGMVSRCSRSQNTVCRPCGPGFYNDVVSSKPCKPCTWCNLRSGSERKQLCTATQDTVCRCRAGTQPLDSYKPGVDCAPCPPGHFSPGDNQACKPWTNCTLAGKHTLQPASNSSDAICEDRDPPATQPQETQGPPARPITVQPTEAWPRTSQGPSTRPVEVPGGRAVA
The experiment in a line: SPR (Biacore), antibody captured via anti-human Fc, huOX40 analyte. As for the experimental part: The binding kinetics of the anti-OX40 antibodies was measured using surface plasmon resonance (SPR) on a Biacore 3000 instrument (GE Healthcare). Anti-human Fc (GE Healthcare) was immobilized on a CM5 sensor chip via amine-based coupling using manufacturer provided protocol. Anti-OX40 antibody was captured at a level of 300-400 resonance units (RU). Antibody binding was measured to human OX40 (Sino Biological Inc). Two-fold concentration series of huOX40 with a range of either 18.75 to 300 nM or 6.25 to 200 nM were used for the experiments. Sensorgrams for binding of OX40 were recorded using an injection time of 2 minutes with a flow rate of 30 μl/min, at a temperature of 25° C., and with a running buffer of 10 mM HEPES, pH 7.4, 150 mM NaCl, and 0.005% Tween 20. After injection, disassociation of the ligand from the antibody was monitored for 600 seconds in running buffer. The surface was regenerated between binding cycles with a 40 μl injection of 3 M Magnesium Chloride.
(Surface plasmon resonance follows binding to a sensor surface in real time, without labels.)

B1: 3C8.gr.1 (antibody, V domains shown)
VH: EVQLVQSGAEVKKPGASVKVSCKASGYAFTNYLIEWVRQAPGQGLEWIGVINPGSGDTYYSEKFKGRVTITRDTSTSTAYLELSSLRSEDTAVYYCARDRLDYWGQGTLVTVSS
VL: DIQMTQSPSSLSASVGDRVTITCHASQDISSYIVWYQQKPGKAPKLLIYHGTNLEDGVPSRFSGSGSGTDFTLTISSLQPEDFATYYCVHYAQFPYTFGQGTKVEIK
notes: human Fc
Take B1: binding was put at a Kd of 6.49 nM; the koff (commonly the rate constant with which the complex falls apart) was 0.00267 s⁻¹; the kon (as a rule, the second-order rate constant of association) was found to be 412000 M⁻¹ s⁻¹.

B2: 3C8.gr.6 (antibody, V domains shown)
VH: EVQLVQSGAEVKKPGASVKVSCKASGYAFTNYLIEWVRQAPGQGLEWIGVINPGSGDTYYSEKFKGRVTITADTSTSTAYLELSSLRSEDTAVYYCARDRLDYWGQGTLVTVSS
VL: DIQMTQSPSSLSASVGDRVTITCHASQDISSYIVWYQQKPGKSFKGLIYHGTNLEDGVPSRFSGSGSGADYTLTISSLQPEDFATYYCVHYAQFPYTFGQGTKVEIK
notes: human Fc
As to B2, the Kd (usually the constant that tells how readily two partners part at equilibrium) stood at 3.08 nM, the koff is 0.00122 s⁻¹ and the kon amounted to 395000 M⁻¹ s⁻¹.

B3: 3C8.gr.3 (antibody, V domains shown)
VH: EVQLVQSGAEVKKPGASVKVSCKASGYAFTNYLIEWVRQAPGQGLEWIGVINPGSGDTYYSEKFKGRVTLTADTSTSTAYLELSSLRSEDTAVYYCARDRLDYWGQGTLVTVSS
VL: DIQMTQSPSSLSASVGDRVTITCHASQDISSYIVWYQQKPGKAPKLLIYHGTNLEDGVPSRFSGSGSGTDFTLTISSLQPEDFATYYCVHYAQFPYTFGQGTKVEIK
notes: human Fc
B3: the Kd is 3.94 nM, the koff amounted to 0.00196 s⁻¹ and the kon was found to be 498000 M⁻¹ s⁻¹.

B4: 3C8.gr.9 (antibody, V domains shown)
VH: EVQLVQSGAEVKKPGASVKVSCKASGYAFTNYLIEWVRQAPGQGLEWIGVINPGSGDTYYSEKFKGRVTLTRDTSTSTAYLELSSLRSEDTAVYYCARDRLDYWGQGTLVTVSS
VL: DIQMTQSPSSLSASVGDRVTITCHASQDISSYIVWYQQKPGKSPKLLIYHGTNLEDGVPSRFSGSGSGTDFTLTISSLQPEDFATYYCVHYAQFPYTFGQGTKVEIK
notes: human Fc
As for B4, the Kd amounted to 4.28 nM, the koff is 0.00173 s⁻¹ and the kon stood at 404000 M⁻¹ s⁻¹.

B5: 3C8.gr.8 (antibody, V domains shown)
VH: EVQLVQSGAEVKKPGASVKVSCKASGYAFTNYLIEWVRQAPGQGLEWIGVINPGSGDTYYSEKFKGRVTLTRDTSTSTAYLELSSLRSEDTAVYYCARDRLDYWGQGTLVTVSS
VL: DIQMTQSPSSLSASVGDRVTITCHASQDISSYIVWYQQKPGKSFKGLIYHGTNLEDGVPSRFSGSGSGTDFTLTISSLQPEDFATYYCVHYAQFPYTFGQGTKVEIK
notes: human Fc
Take B5: the Kd worked out at 2.16 nM, the koff is 0.000709 s⁻¹ and the kon came to 329000 M⁻¹ s⁻¹.

B6: 3C8.gr.10 (antibody, V domains shown)
VH: EVQLVQSGAEVKKPGASVKVSCKASGYAFTNYLIEWVRQAPGQGLEWIGVINPGSGDTYYSEKFKGRVTLTRDTSTSTAYLELSSLRSEDTAVYYCARDRLDYWGQGTLVTVSS
VL: DIQMTQSPSSLSASVGDRVTITCHASQDISSYIVWYQQKPGKAFKLLIYHGTNLEDGVPSRFSGSGSGTDFTLTISSLQPEDFATYYCVHYAQFPYTFGQGTKVEIK
notes: human Fc
Take B6: binding was put at a Kd of 2.84 nM, the koff worked out at 0.00108 s⁻¹ and the kon turned out to be 382000 M⁻¹ s⁻¹.

B7: 3C8.gr.11 (antibody, V domains shown)
VH: EVQLVQSGAEVKKPGASVKVSCKASGYAFTNYLIEWVRQAPGQGLEWIGVINPGSGDTYYSEKFKGRVTLTRDTSTSTAYLELSSLRSEDTAVYYCARDRLDYWGQGTLVTVSS
VL: DIQMTQSPSSLSASVGDRVTITCHASQDISSYIVWYQQKPGKAPKGLIYHGTNLEDGVPSRFSGSGSGTDFTLTISSLQPEDFATYYCVHYAQFPYTFGQGTKVEIK
notes: human Fc
B7 displayed a Kd of 2.86 nM, a koff of 0.000917 s⁻¹ and a kon of 321000 M⁻¹ s⁻¹.

B8: 3C8.gr.DA (antibody, V domains shown)
VH: EVQLVQSGAEVKKPGASVKVSCKASGYAFTNYLIEWVRQAPGQGLEWIGVINPGSGDAYYSEKFKGRVTLTADTSTSTAYLELSSLRSEDTAVYYCARDRLDYWGQGTLVTVSS
VL: DIQMTQSPSSLSASVGDRVTITCHASQDISSYIVWYQQKPGKSFKGLIYHGTNLEDGVPSRFSGSGSGTDFTLTISSLQPEDFATYYCVHYAQFPYTFGQGTKVEIK
notes: also called 3C8.gr.5.DA
Consider B8, for which binding was characterised by a dissociation constant (Kd) of 12.9 nM, the koff came out at 0.00502 s⁻¹ and the kon was determined as 388000 M⁻¹ s⁻¹.

B9: 3C8.gr.5.QG (antibody, V domains shown)
VH: EVQLVQSGAEVKKPGASVKVSCKASGYAFTNYLIEWVRQAPGQGLEWIGVINPGSGDTYYSEKFKGRVTLTADTSTSTAYLELSSLRSEDTAVYYCARDRLDYWGQGTLVTVSS
VL: DIQMTQSPSSLSASVGDRVTITCHASQDISSYIVWYQQKPGKSFKGLIYHGTNLEQGVPSRFSGSGSGTDFTLTISSLQPEDFATYYCVHYAQFPYTFGQGTKVEIK
The molecule B9 gave a Kd of 1.17 nM, a koff of 0.000534 s⁻¹ and a kon of 457000 M⁻¹ s⁻¹.

B10: 3C8.gr.4 (antibody, V domains shown)
VH: EVQLVQSGAEVKKPGASVKVSCKASGYAFTNYLIEWVRQAPGQGLEWIGVINPGSGDTYYSEKFKGRVTITADTSTSTAYLELSSLRSEDTAVYYCARDRLDYWGQGTLVTVSS
VL: DIQMTQSPSSLSASVGDRVTITCHASQDISSYIVWYQQKPGKSFKGLIYHGTNLEDGVPSRFSGSGSGTDFTLTISSLQPEDFATYYCVHYAQFPYTFGQGTKVEIK
notes: human Fc
On to B10, for which the Kd came out at 2.2 nM, the koff is 0.000923 s⁻¹ and the kon worked out at 420000 M⁻¹ s⁻¹.

B11: 3C8.gr.2 (antibody, V domains shown)
VH: EVQLVQSGAEVKKPGASVKVSCKASGYAFTNYLIEWVRQAPGQGLEWIGVINPGSGDTYYSEKFKGRVTITADTSTSTAYLELSSLRSEDTAVYYCARDRLDYWGQGTLVTVSS
VL: DIQMTQSPSSLSASVGDRVTITCHASQDISSYIVWYQQKPGKAPKLLIYHGTNLEDGVPSRFSGSGSGTDFTLTISSLQPEDFATYYCVHYAQFPYTFGQGTKVEIK
notes: human Fc
Molecule B11 yielded a Kd of 5.48 nM, a koff of 0.00255 s⁻¹ and a kon of 466000 M⁻¹ s⁻¹.

B12: 3C8.gr.7 (antibody, V domains shown)
VH: EVQLVQSGAEVKKPGASVKVSCKASGYAFTNYLIEWVRQAPGQGLEWIGVINPGSGDTYYSEKFKGRVTLTADTSTSTAYLELSSLRSEDTAVYYCARDRLDYWGQGTLVTVSS
VL: DIQMTQSPSSLSASVGDRVTITCHASQDISSYIVWYQQKPGKSFKGLIYHGTNLEDGVPSRFSGSGSGADYTLTISSLQPEDFATYYCVHYAQFPYTFGQGTKVEIK
notes: human Fc
B12 registered a Kd of 1.41 nM, a koff of 0.000685 s⁻¹ and a kon of 486000 M⁻¹ s⁻¹.

B13: 1A7.gr.3 (antibody, V domains shown)
VH: EVQLVQSGAEVKKPGASVKVSCKASGYTFTDSYMSWVRQAPGQGLEWIGDMYPDNGDSSYNQKFRERVTLTVDTSTSTAYLELSSLRSEDTAVYYCVLAPRWYFSVWGQGTLVTVSS
VL: DIQMTQSPSSLSASVGDRVTITCRASQDISNYLNWYQQKPGKAPKLLIYYTSRLRSGVPSRFSGSGSGTDFTLTISSLQPEDFATYYCQQGHTLPPTFGQGTKVEIK
notes: human Fc
In turn, B13 gave a Kd of 0.525 nM, a koff of 0.000243 s⁻¹ and an on-rate (kon) of 462000 M⁻¹ s⁻¹.

B14: 1A7.gr.6 (antibody, V domains shown)
VH: EVQLVQSGAEVKKPGASVKVSCKASGYTFTDSYMSWVRQAPGQGLEWIGDMYPDNGDSSYNQKFRERVTITVDTSTSTAYLELSSLRSEDTAVYYCVLAPRWYFSVWGQGTLVTVSS
VL: DIQMTQSPSSLSASVGDRVTITCRASQDISNYLNWYQQKPGKTVKLLIYYTSRLRSGVPSRFSGSGSGKDYTLTISSLQPEDFATYFCQQGHTLPPTFGQGTKVEIK
notes: human Fc
As for B14, the Kd came out at 0.177 nM, the koff was 6.93e-05 s⁻¹ and the kon worked out at 391000 M⁻¹ s⁻¹.

B15: 1A7.gr.5′ (antibody, V domains shown)
VH: EVQLVQSGAEVKKPGASVKVSCKASGYTFTDSYMSWVRQAPGQGLEWIGDMYPDNGDSSYNQKFRERVTLTVDTSTSTAYLELSSLRSEDTAVYYCVLAPRWYFSVWGQGTLVTVSS
VL: DIQMTQSPSSLSASVGDRVTITCRASQDISNYLNWYQQKPGKTVKLLIYYTSRLRSGVPSRFSGSGSGTDFTLTISSLQPEDFATYYCQQGHTLPPTFGQGTKVEIK
notes: human Fc
Take B15: binding was characterised by a dissociation constant (Kd) of 1.77 nM, the koff was 0.000492 s⁻¹ and the kon amounted to 278000 M⁻¹ s⁻¹.

B16: 1A7.gr.7′ (antibody, V domains shown)
VH: EVQLVQSGAEVKKPGASVKVSCKASGYTFTDSYMSWVRQAPGQGLEWIGDMYPDNGDSSYNQKFRERVTLTVDTSTSTAYLELSSLRSEDTAVYYCVLAPRWYFSVWGQGTLVTVSS
VL: DIQMTQSPSSLSASVGDRVTITCRASQDISNYLNWYQQKPGKTVKLLIYYTSRLRSGVPSRFSGSGSGKDYTLTISSLQPEDFATYFCQQGHTLPPTFGQGTKVEIK
notes: human Fc
Molecule B16 showed a Kd of 0.36 nM, an off-rate (koff) of 0.000145 s⁻¹ and a kon of 401000 M⁻¹ s⁻¹.

B17: 1A7.gr.4 (antibody, V domains shown)
VH: EVQLVQSGAEVKKPGASVKVSCKASGYTFTDSYMSWVRQAPGQGLEWIGDMYPDNGDSSYNQKFRERVTITVDTSTSTAYLELSSLRSEDTAVYYCVLAPRWYFSVWGQGTLVTVSS
VL: DIQMTQSPSSLSASVGDRVTITCRASQDISNYLNWYQQKPGKTVKLLIYYTSRLRSGVPSRFSGSGSGTDFTLTISSLQPEDFATYYCQQGHTLPPTFGQGTKVEIK
notes: human Fc
The molecule B17 came in with a Kd of 0.472 nM, a koff of 0.000163 s⁻¹ and a kon of 345000 M⁻¹ s⁻¹.
